Measured values from patent US20140303084A1 (Biogen, published 2014).
Square brackets hold non-standard residues; d marks the D form. Ends that are not written are not given here. NMeY = CN[C@@H](Cc1ccc(O)cc1)C(=O)O; NMeL = CN[C@@H](CC(C)C)C(=O)O

Molecular target: human Factor IXa (human, UniProt P00740 47-191; P00740 227-461)
Test: cell-based or functional assay

Binder: RPRSSAHDRPRRAAGKLTCLASYCWLFWTGIA [RPRSSAHDRP RRAAG KLTCLASYCWLFWTGIA]
- EC50 [µM], FXa generation assay: > 1 µM

Binder: SKQGRPISPDRRAAGKLTCLASYCWLFGSGISLSRAPESAAP
- EC50 [µM], FXa generation assay: > 10 µM

Binder: RRAPGKLTCLASYCWLFVTGTAHAPRVAPAPA [RRAPGKLTCLASYCWLF VTGTA HAPRVAPAPA]
- EC50 [µM], FXa generation assay: > 1 µM

B1: SKQGRPISSDrRAAGKLTCLASYCWLFWTGIA (peptide)
peptide: SKQGRPISSD[dR]RAAGKLTCLASYCWLFWTGIA
modifications: not fully specified; printed as SKQGRPISSDrRAAGKLTCLASYCWLFWTGIA; cysteine pairing not given here
- EC50 [µM], FXa generation assay: < 0.5 µM

Binder: PARGKERELMRRAPGKLTCLASYCWLFWTGIA [PARGKERELM RRAPG KLTCLASYCWLFWTGIA]
- EC50 [µM], FXa generation assay: > 1 µM

Binder: RRAPGKLCALASYCWLFWTGIA-OH (cysteine pairing not given here) [RRAPGKLCALASYCWLFWTGIA-COOH]
- EC50 [µM], FXa generation assay: > 1 µM

B2: SKQGRPISSDrRASGKSTCLASYCWLFWTGIA (peptide)
peptide: SKQGRPISSD[dR]RASGKSTCLASYCWLFWTGIA
modifications: not fully specified; printed as SKQGRPISSDrRASGKSTCLASYCWLFWTGIA; cysteine pairing not given here
- EC50 [µM], FXa generation assay: < 0.5 µM

Binder: NGALGFRSVVPRAAGKLTCLASYCWLFWTGIA [NGALGFRSVV PRAAG KLTCLASYCWLFWTGIA]
- EC50 [µM], FXa generation assay: < 0.5 µM

Binder: AQWVGRGQWAIRAPGKLTCLASYCWLFWTGIA [AQWVGRGQWA IRAPG KLTCLASYCWLFWTGIA]
- EC50 [µM], FXa generation assay: > 1 µM

Binder: RRAPGKLTCLASYCWLFWSGIAPQPPNMRPSV [RRAPGKLTCLASYCWLF WSGIA PQPPNMRPSV]
- EC50 [µM], FXa generation assay: < 0.5 µM

Binder: SLISMTNPSGRRVPGKLTCLASYCWLFWTGIA [SLISMTNPSG RRVPG KLTCLASYCWLFWTGIA]
- EC50 [µM], FXa generation assay: < 0.5 µM

Binder: RRAPGKLTCLASYCWLFWTGIARWPSHRSGPS (not fully specified (C-terminus); cysteine pairing not given here) [RRAPGKLTCLASYCWLF WTGIA RWPSHRSGPS]
- EC50 [µM], FXa generation assay: > 1 µM

Binder: RRAPGKLTCLASYCWLFWTTWTTAPTTPPLTT [RRAPGKLTCLASYCWLF WTTWT TAPTTPPLTT]
- EC50 [µM], FXa generation assay: < 0.5 µM

Binder: SKQGRPISPD[dR]RAAGKLTCLASYCW[NMeL]FWTGIA (not fully specified; cysteine pairing not given here) [SKQGRPISPDrRAAGKLTCLASYCW-NMeLeu-FWTGIA]
- EC50 [µM], FXa generation assay: > 10 µM

Binder: PRTTANRRSSRRAPAKLTCLASYCWLFWTGIA [PRTTANRRSS RRAPA KLTCLASYCWLFWTGIA]
- EC50 [µM], FXa generation assay: < 0.5 µM

Binder: RRAPGKLTCLASYCWLFATGVTFPQIWAIPSP [RRAPGKLTCLASYCWLF ATGVT FPQIWAIPSP]
- EC50 [µM], FXa generation assay: > 1 µM

Binder: PNLLRVRTSEVRNPGKLTCLASYCWLFWTGIA [PNLLRVRTSE VRNPG KLTCLASYCWLFWTGIA]
- EC50 [µM], FXa generation assay: < 0.5 µM

Binder: RRAPGKCTALASYCWLFWTGIA-OH (cysteine pairing not given here) [RRAPGKCTALASYCWLFWTGIA-COOH]
- EC50 [µM], FXa generation assay: > 1 µM

Binder: RRAPGKLTCLASYCWLFWAGIAPHRPLKERVR [RRAPGKLTCLASYCWLF WAGIA PHRPLKERVR]
- EC50 [µM], FXa generation assay: > 1 µM

Binder: RRAPGKLTCLASYCWLFWTAVGGQPYMLLAWR [RRAPGKLTCLASYCWLF WTAVG GQPYMLLAWR]
- EC50 [µM], FXa generation assay: < 0.5 µM

Binder: RRAPGKLTCLASYCWLFWAVIAPPKVKGTRQS [RRAPGKLTCLASYCWLF WAVIA PPKVKGTRQS]
- EC50 [µM], FXa generation assay: > 1 µM

Binder: GRAMAAEPWPRQAPGKLTCLASYCWLFWTGIA [GRAMAAEPWP RQAPG KLTCLASYCWLFWTGIA]
- EC50 [µM], FXa generation assay: < 0.5 µM

Binder: RRAPGKLTCLASYCWLFYTGIAHGHPMEHRKS [RRAPGKLTCLASYCWLF YTGIA HGHPMEHRKS]
- EC50 [µM], FXa generation assay: > 1 µM

Binder: RRAPGKLTCLASYCWLFWTTYASYATKPADTT [RRAPGKLTCLASYCWLF WTTYA SYATKPADTT]
- EC50 [µM], FXa generation assay: < 0.5 µM

B3: SKQGRPISSDrRASGKLTCLASYCWLFWTGIA (peptide)
peptide: SKQGRPISSD[dR]RASGKLTCLASYCWLFWTGIA
modifications: not fully specified; printed as SKQGRPISSDrRASGKLTCLASYCWLFWTGIA; cysteine pairing not given here
- EC50 [µM], FXa generation assay: < 0.5 µM

B4: SKQGRPISSDrRAAGKSTCLASYCWLFWTGIA (peptide)
peptide: SKQGRPISSD[dR]RAAGKSTCLASYCWLFWTGIA
modifications: not fully specified; printed as SKQGRPISSDrRAAGKSTCLASYCWLFWTGIA; cysteine pairing not given here
- EC50 [µM], FXa generation assay: < 0.5 µM

B5: SKQGRPISPArRAAGKLTCLASYCWLFWTGIA (peptide)
peptide: SKQGRPISPA[dR]RAAGKLTCLASYCWLFWTGIA
modifications: not fully specified; printed as SKQGRPISPArRAAGKLTCLASYCWLFWTGIA; cysteine pairing not given here
- EC50 [µM], FXa generation assay: < 0.5 µM

Binder: TALSRGLVTMRTAPDKLTCLASYCWLFWTGIA [TALSRGLVTM RTAPD KLTCLASYCWLFWTGIA]
- EC50 [µM], FXa generation assay: < 0.5 µM

Binder: PQTRDPSSRDRRAPGKLTCLASYCWLFWTGIA [PQTRDPSSRD RRAPG KLTCLASYCWLFWTGIA]
- EC50 [µM], FXa generation assay: < 0.5 µM

Binder: LYTAWIKCQFARLPGCALSGRW-NH2 (cysteine pairing not given here) [compound C]
- EC50 [µM], FXa generation assay with hFIXa: > 25 µM

Binder: SKQGRPISPD[dR]RAAGKLTCLAS[NMeY]CWLFWTGIA (not fully specified; cysteine pairing not given here) [SKQGRPISPDrRAAGKLTCLAS-NMeTyr-CWLFWTGIA]
- EC50 [µM], FXa generation assay: > 10 µM

Binder: RRAPGKLTCLASYCWLFWTGLLDYPTPQSHEP [RRAPGKLTCLASYCWLF WTGLL DYPTPQSHEP]
- EC50 [µM], FXa generation assay: < 0.5 µM

B6: SKQGRPISPDrRAAGKLTCLaSYCWLFWTGIA (peptide)
peptide: SKQGRPISPD[dR]RAAGKLTCL[dA]SYCWLFWTGIA
modifications: not fully specified; printed as SKQGRPISPDrRAAGKLTCLaSYCWLFWTGIA; cysteine pairing not given here
- EC50 [µM], FXa generation assay: > 10 µM

Binder: RRAPGKLTCLASYCWLFLTGWARVPLPPRPHP [RRAPGKLTCLASYCWLF LTGWA RVPLPPRPHP]
- EC50 [µM], FXa generation assay: > 1 µM
